Molecular target: Ssa1 (Hsp70) (Saccharomyces cerevisiae, UniProt P10591 1-642)
Assay: cross-linking

Sequence of Ssa1 (Hsp70) (P10591 whole entry): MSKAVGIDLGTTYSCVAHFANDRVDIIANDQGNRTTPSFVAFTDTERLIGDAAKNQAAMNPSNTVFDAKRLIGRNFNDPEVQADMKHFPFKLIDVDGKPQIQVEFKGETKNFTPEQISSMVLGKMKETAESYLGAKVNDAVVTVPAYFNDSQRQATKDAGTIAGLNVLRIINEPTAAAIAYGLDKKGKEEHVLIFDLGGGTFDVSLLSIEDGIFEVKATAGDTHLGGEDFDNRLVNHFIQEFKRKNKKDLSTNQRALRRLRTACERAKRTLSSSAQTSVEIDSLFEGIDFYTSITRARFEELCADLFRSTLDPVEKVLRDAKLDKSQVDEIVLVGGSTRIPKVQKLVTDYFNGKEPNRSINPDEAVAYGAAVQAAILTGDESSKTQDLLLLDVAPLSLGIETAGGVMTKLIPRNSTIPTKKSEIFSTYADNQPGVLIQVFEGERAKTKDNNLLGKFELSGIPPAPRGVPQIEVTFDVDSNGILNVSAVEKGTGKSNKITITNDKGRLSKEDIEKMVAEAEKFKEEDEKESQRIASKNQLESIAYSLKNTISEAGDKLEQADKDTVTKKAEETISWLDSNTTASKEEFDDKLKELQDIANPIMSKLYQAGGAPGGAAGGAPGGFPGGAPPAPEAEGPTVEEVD

B1: Ydj1 (Hsp40) (natural protein)
chain: MVKETKFYDILGVPVTATDVEIKKAYRKCALKYHPDKNPSEEAAEKFKEASAAYEILSDPEKRDIYDQFGEDGLSGAGGAGGFPGGGFGFGDDIFSQFFGAGGAQRPRGPQRGKDIKHEISASLEELYKGRTAKLALNKQILCKECEGRGGKKGAVKKCTSCNGQGIKFVTRQMGPMIQRFQTECDVCHGTGDIIDPKDRCKSCNGKKVENERKILEVHVEPGMKDGQRIVFKGEADQAPDVIPGDVVFIVSERPHKSFKRDGDDLVYEAEIDLLTAIAGGEFALEHVSGDWLKVGIVPGEVIAPGMRKVIEGKGMPIPKYGGYGNLIIKFTIKFPENHFTSEENLKKLEEILPPRIVPAIPKKATVDECVLADFDPAKYNRTRASRGGANYDSDEEEQGGEGVQCASQ
binding result: binds

Reference: paper doi:10.1101/2021.06.06.447241 (bioRxiv, 2021)
